# Experimental data published in patent publication US11306331B2, “Processes for the production of hydroxycinnamic acids using polypeptides having tyrosine ammonia lyase activity” (CysBio ApS, priority 2014, dated 2022).
# Experiments:
# [1] = system: E. coli BL21(DE3)pLysS cells; assay: Titers of hydroxycinnamic acids in supernatants of E. coli cultures expressing TAL homologs; assay type: cell-based, Escherichia coli; conditions: 16 hours, 37° C., duplicate
# Procedure: E. coli strains described in Example 1 were used. M9 medium with 0.2% glucose and 0.5 mM IPTG also containing either tyrosine (204 μM), L-dopa (194 μM) or 3-O-methyldopa (262 μM) was transferred as 3-mL aliquots into a 24-well deep-well plate (Enzyscreen). Aliquots were taken for HPLC before the wells were inoculated with 200 μL of overnight cultures of the strains. The plates were placed at 37° C. with shaking for 16 hours. Samples of the supernatant were withdrawn after two rounds of centrifugation. The samples were subjected to HPLC along with chemical standards as described in Example 1. p-coumaric acid, caffeic acid and ferulic acid was measured by absorbance at 333 nm. Tyrosine, L-dopa and 3-O-methyldopa were measured by fluorescence (excitation at 274 nm, emission at 303 nm).
# There was no measurable product in the medium before inoculation.
# [2] = system: Saccharomyces cerevisiae CEN.PK102-5B; assay: Specific production of pHCA and CA by S. cerevisiae expressing TAL enzymes; assay type: cell-based; conditions: 72 h, 30° C., +/- standard deviation
# Source text: A number of the previously characterized enzymes were characterized when expressed in Saccharomyces cerevisiae. Genes encoding HaXAL1 and FjXAL were synthesized with codon optimization for S. cerevisiae available by GeneArt (Life Technologies), and were named HaXAL1 Sc and FjXALSc. Genes were amplified using the oligonucleotide (refer to specific name) shown in Table 6, and inserted by uracil-excision into the vector pCfB132 together with the PPGK1 promoter amplified by primers PPGK1_fw and PPGK1_rv (Jensen et al., 2014). The finished plasmids were transformed into Saccharomyces cerevisiae CEN.PK102-5B (MAT a ura3-52 his3Δ1 leu2-3/112 MAL2-8c SUC2) using a standard lithium acetate transformation protocol and selected for on synthetic drop-out media plates lacking uracil.
# Cells were grown in SC medium without uracil, and diluted into Delft medium or Feed-In-Time (FIT) medium (m2p-labs) supplemented with leucine and histidine. After 72 h of incubation at 30° C. with shaking, samples were taken for the analysis of optical density at 600 nm and for clarification of the supernatant, which was analyzed by HPLC as described in example 1. The specific production was calculated as micromolar (μM) concentration per unit of optical density of the culture at 600 nm and is shown in Table 4.
# [3] = system: E. coli BL21(DE3)pLysS cells; assay: Specific production of pHCA and CA by E. coli expressing TAL/PAL enzymes; assay type: cell-based, Escherichia coli; conditions: 24 h after supplementation, +/- standard deviation
# Procedure: Plasmids carrying the genes were transformed into electrocompetent E. coli BL21(DE3)pLysS cells (Life Technologies) and selected on LBplates containing 50 ug/mL streptomycin. The strains were grown in M9 minimal media containing glucose as a carbon source, and expression was induced by adding 1 mM IPTG at an optical density at 600 nm of 0.6. After three hours of growth at 30° C. the cultures were supplemented with 2 mM tyrosine, phenylalanine or histidine. After further 24 hours, samples were withdrawn for determination of the optical density at 600 nm and for the isolation of the supernatant.
# The concentration of pHCA and CA in the supernatant was quantified by high performance (HPLC) and compared to chemical standards. HPLC was done on a Thermo setup using a HS-F5 column and mobile phases: 5 mM ammonium formate pH 4.0 (A) and acetonitrile (B) at 1.5 mL min-1, using a gradient elution starting at 5% B. From 0.5 min after injection to 7 min, the fraction of B increased linearly from 5% to 60%, and between 9.5 min and 9.6 the fraction of B decreased back to 5%, and remaining there until 12m pHCA and CA were quantified by measuring absorbance at 333 nm and 277 nm, respectively. The production was tested without addition of precursors or the addition of either phenylalanine or tyrosine to the growth medium.
# The specific production was calculated as micromolar (μM) concentration per unit of optical density of the culture at 600 nm, and standard deviations were calculated based on triplicate experiments. HaXAL1, HaXAL2 and FjXAL are the most specific enzymes and those that reach the highest yields.
# [4] = substrate: N[C@@H](Cc1ccc(O)cc1)C(=O)O; assay: In vitro kinetics of purified His-tagged HaXAL1 (tyrosine/phenylalanine ammonia lyase activity, absorbance at 315/295 nm); assay type: biochemical, Herpetosiphon aurantiacus; conditions: other: HaXAL1, 30° C, 1.56 μM to 200 μM tyrosine or 193 μM to 25 mM phenylalanine, pH 7.5
# Procedure: (§1) The tyrosine ammonia lyase activity may for instance be determined in accordance to the following method: Enzymatic assays are performed in 200 μL volumes in wells in a UV transparent 96-well plate, by following the increase in absorbance at 315 nm (pHCA) using spectrophotometry or HPLC with UV detection. The reaction mixtures contain 2 μg of purified protein and are initiated by adding 1 mM tyrosine or 6 mM after equilibration to 30° C. The enzymatic activity is calculated as U/g, where U is defined as μmol substrate converted per minute. Negative controls contain no purified protein. Kinetic constants Km and vmax are determined from assays containing 1.56 μM to 200 μM tyrosine. See also Kyndt et al. (2002).
# (§2) Four of the enzymes were further purified by His-tag purification as follows. A DNA linker (5′ phosphorylated oligonucleotides CBJP559 and CBJP560, Table 5) was inserted in place of the sequence between the NdeI and BgIII site in plasmid pCDFDuet-1. This would result in the addition of the amino acids MAHHHHHHENLYFQ (SEQ ID NO: 11) to the N-terminal end of the polypeptides. The resulting plasmid was amplified with primers CBJP575 and CBJP576 (table 5) and the genes were amplified and combined using the Gibson reaction (New England Biolabs). The PCR amplification used the same reverse primers as in example 1, but the forward primers matching the His-tag site of the linker (Table 5). Plasmids carrying the genes (e.g. FjXAL, FIG. 4) were transformed into electrocompetent E. coli BL21(DE3)pLysS cells (Life Technologies) and selected on LB plates containing 50 ug/mL streptomycin.
# (§3) Strains expressing His-tagged versions of the enzymes were grown in LB media overnight at 37° C. and diluted into fresh LB media with 1 mM IPTG and growth was propagated overnight (approximately 18 h) at 30° C. Cells were harvested by centrifugation at 8000 rpm for 8 minutes, and disrupted by shearing into a buffer (50 mM Tris-HCl, 10 mM imidazole, 500 mM NaCl, 10% glycerol, pH 7.5). The homogenate was clarified by centrifugation at 10000 g for 10 min at 4° C., and the supernatant was loaded onto Ni2+-NTA resin column on an Äkta Pure system connected to a F9-C fraction collector (GE). Finally the fractions containing the purified polypeptide was dialyzed overnight against a buffer containing 50 mM Tris-HCl pH 7.5, 150 mM NaCl and 10% glycerol, flash-frozen in liquid nitrogen and stored at −80° C.
# (§4) Enzymatic assays were performed in 200 μL volumes in wells in a UV transparent 96-well plate, by following the increase in absorbance at 315 nm (pHCA) or 295 nm (CA). […] The enzymatic activity was calculated as U/g, where U is defined as μmol substrate converted per minute.
# [5] = substrate: N[C@@H](Cc1ccccc1)C(=O)O; assay: as above; assay type: biochemical, Herpetosiphon aurantiacus; conditions: other: HaXAL1, 30° C, 1.56 μM to 200 μM tyrosine or 193 μM to 25 mM phenylalanine, pH 7.5
# Procedure: as §1, §2, §3, §4
# [6] = substrate: N[C@@H](Cc1ccc(O)cc1)C(=O)O; assay: In vitro kinetics of purified His-tagged SeSam8 (tyrosine/phenylalanine ammonia lyase activity, absorbance at 315/295 nm); assay type: biochemical, Saccharothrix espanaensis; conditions: other: SeSam8, 30° C, 1.56 μM to 200 μM tyrosine or 193 μM to 25 mM phenylalanine, pH 7.5
# Source text: as §2, §3, §4
# [7] = substrate: N[C@@H](Cc1ccccc1)C(=O)O; assay: as above; assay type: biochemical, Saccharothrix espanaensis; conditions: other: SeSam8, 30° C, 1.56 μM to 200 μM tyrosine or 193 μM to 25 mM phenylalanine, pH 7.5
# Source text: as §2, §3, §4
# [8] = substrate: N[C@@H](Cc1ccc(O)cc1)C(=O)O; assay: purified protein, by the assay type; conditions: other: RsTAL, 30° C, 1.56 μM to 200 μM tyrosine or 193 μM to 25 mM phenylalanine, pH 7.5
# Procedure: (§5) Enzymatic assays were performed in 200 μL volumes in wells in a UV transparent 96-well plate, by following the increase in absorbance at 315 nm (pHCA) or 295 nm (CA). The reaction mixtures contained 2 μg of purified protein and were initiated by adding 1 mM tyrosine or 6 mM after equilibration to 30° C. The enzymatic activity was calculated as U/g, where U is defined as μmol substrate converted per minute.
# [9] = substrate: N[C@@H](Cc1ccccc1)C(=O)O; assay: purified protein, by the assay type; conditions: other: RsTAL, 30° C, 1.56 μM to 200 μM tyrosine or 193 μM to 25 mM phenylalanine, pH 7.5
# Procedure: as §5
molecule,measurement,setting,value
"Herpetosiphon aurantiacus HaXAL1 tyrosine ammonia lyase (Protein GI 159898407), SEQ ID NO: 2, His-tagged (N-terminal tag SEQ ID NO: 11) (Herpetosiphon … (protein) MSTTLILTGEGLGIDDVVRVARHQDRVELTTDPAILAQIEASCAYINQAVKEHQPVYGVTTGFGGMANVIISPEEAAELQNNAIWYHKTGAGKLLPFTDVRAAMLLRANSHMRGASGIRLEIIQRMVTFLNANVTPHVREFGSIGASGDLVPLISITGALLGTDQAFMVDFNGETLDCISALERLGLPRLRLQPKEGLAMMNGTSVMTGIAANCVHDARILLALALEAHALMIQGLQGTNQSFHPFIHRHKPHTGQVWAADHMLELLQGSQLSRNELDGSHDYRDGDLIQDRYSLRCLPQFLGPIIDGMAFISHHLRVEINSANDNPLIDTASAASYHGGNFLGQYIGVGMDQLRYYMGLMAKHLDVQIALLVSPQFNNGLPASLVGNIQRKVNMGLKGLQLTANSIMPILTFLGNSLADRFPTHAEQFNQNINSQGFGSANLARQTIQTLQQYIAITLMFGVQAVDLRTHKLAGHYNAAELLSPLTAKIYHAVRSIVKHPPSPERPYIWNDDEQVLEAHISALAHDIANDGSLVSAVEQTLSGLRSIILFR",Titer of ferulic acid,[1]; M9 + 3-O-methyldopa (262 μM),0.6 ± 0.0 µM
same,Titer of caffeic acid,[1]; M9 + L-dopa (194 μM),6.9 ± 1.3 µM
same,Titer of p-coumaric acid,[1]; M9 + tyrosine (204 μM),81 ± 1.2 µM
same,Specific production of CA,[2]; Delft + Tyr (10 mM),0 ± 0 μM OD600-1
same,Specific production of pHCA,[2]; Delft + Tyr (10 mM),110 ± 15 μM OD600-1
same,Specific production of CA,[2]; Delft medium,0 ± 0 μM OD600-1
same,Specific production of pHCA,[2]; Delft medium,31 ± 3.2 μM OD600-1
same,Specific production of CA,[2]; FIT + Tyr (10 mM),0 ± 0 μM OD600-1
same,Specific production of pHCA,[2]; FIT + Tyr (10 mM),120 ± 10 μM OD600-1
same,Specific production of CA,[2]; FIT medium,0 ± 0 μM OD600-1
same,Specific production of pHCA,[2]; FIT medium,140 ± 13 μM OD600-1
same,Specific production of CA,[3]; M9 + Phe (2 mM),1.1 ± 0.2 μM OD600-1
same,Specific production of pHCA,[3]; M9 + Phe (2 mM),36 ± 14 μM OD600-1
same,Specific production of CA,[3]; M9 + Tyr (2 mM),0 ± 0 μM OD600-1
same,Specific production of pHCA,[3]; M9 + Tyr (2 mM),130 ± 26 μM OD600-1
same,Km,[4],16 µM
same,Km,[5],22000 µM
same,kcat,[5],0.128 s⁻¹
same,kcat/Km,[5],6.1 M⁻¹ s⁻¹
"Saccharothrix espanaensis SeSam8 (Protein GI 433607630), His-tagged (N-terminal tag SEQ ID NO: 11) (Saccharothrix espanaensis) (protein) MTQVVERQADRLSSREYLARVVRSAGWDAGLTSCTDEEIVRMGASARTIEEYLKSDKPIYGLTQGFGPLVLFDADSELEQGGSLISHLGTGQGAPLAPEVSRLILWLRIQNMRKGYSAVSPVFWQKLADLWNKGFTPAIPRHGTVSASGDLQPLAHAALAFTGVGEAWTRDADGRWSTVPAVDALAALGAEPFDWPVREALAFVNGTGASLAVAVLNHRSALRLVRACAVLSARLATLLGANPEHYDVGHGVARGQVGQLTAAEWIRQGLPRGMVRDGSRPLQEPYSLRCAPQVLGAVLDQLDGAGDVLAREVDGCQDNPITYEGELLHGGNFHAMPVGFASDQIGLAMHMAAYLAERQLGLLVSPVTNGDLPPMLTPRAGRGAGLAGVQISATSFVSRIRQLVFPASLTTLPTNGWNQDHVPMALNGANSVFEALELGWLTVGSLAVGVAQLAAMTGHAAEGVWAELAGICPPLDADRPLGAEVRAARDLLSAHADQLLVDEADGKDFG",Km,[6],4.8 µM
same,Km,[7],2200 µM
same,kcat,[7],0.00883 s⁻¹
same,kcat/Km,[7],4.03 M⁻¹ s⁻¹
"Rhodobacter sphaeroides RsTAL (Protein GI 126464011), His-tagged (N-terminal tag SEQ ID NO: 11) (Cereibacter sphaeroides 2.4.1) (protein) MLAMSPPKPAVELDRHIDLDEAHSVASGGARIVLAPPARDRCRASEARLGAVIREARHVYGLTTGFGPLANRLVSGENVRTLQANLVHHLASGVGPVLDWTTARAMVLARLVAIAQGASGASEGTIARLIDLLNSELAPAVPMRGTVGASGDLTPLAHMVLCLQGRGDFLDRDGTRLDGAEGLRRGRLQPLDLSHRDALALVNGTSAMTGIALVNAHACRHLGNWAVALTALLAECLGGRTEAWAAALSDLRPHPGQKDAAARLRARVDGSARVVRHVIAERRLGASDIGTEPEAGQDAYSLRCAPQVLGAGFDTLAWHDRVLTIELNAVTDNPVFPPDGSVPALHGGNFMGQHVALTSDALATAVTVLAGLAERQIARLTDERLNRGLPPFLHRGPAGLNSGFMGAQVTATALLAEMRATGPASIHSISTNAANQDVVSLGTIAARLCREKIDRWAEILAILALCLAQAAELRCGSGLDGVSPAGKKLVQALREQFPPLETDRPLGQEIAALATHLLQQSPV",Km,[8],5.6 µM
same,Km,[9],2400 µM
same,kcat,[9],0.0597 s⁻¹
same,kcat/Km,[9],24.6 M⁻¹ s⁻¹
